Laboratory results: article PMC4780704, “A Parallel G Quadruplex-Binding Protein Regulates the Boundaries of DNA Elimination Events of Tetrahymena thermophila”

Assays:
[1] = target: T1, MBP-Lia3 (Tetrahymena thermophila, UniProt A3F815 1-322); assay: competition; excess vs G4-M1 probe; 400 nM protein; EMSA: 10 mM Tris pH 7.5, 1 mM EDTA, 0.1 mM DTT, 5% glycerol, 0.010 mg/ml BSA, 100 mM KCl (or 100 mM LiCl to limit G4), 4 nM probe, RT; conditions: protein: recombinant; tags: N-terminal MBP-TEV-His; linear, no G4
T1 sequence: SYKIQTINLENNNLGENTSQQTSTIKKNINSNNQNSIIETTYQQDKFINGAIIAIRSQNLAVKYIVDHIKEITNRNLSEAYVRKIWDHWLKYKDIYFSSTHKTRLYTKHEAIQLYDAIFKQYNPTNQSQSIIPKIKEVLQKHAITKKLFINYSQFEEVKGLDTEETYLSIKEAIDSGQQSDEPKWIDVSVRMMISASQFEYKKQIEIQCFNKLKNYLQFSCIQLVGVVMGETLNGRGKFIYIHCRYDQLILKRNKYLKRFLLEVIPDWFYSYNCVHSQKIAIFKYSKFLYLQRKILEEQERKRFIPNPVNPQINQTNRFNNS

[2] = target: T2, His-Lia3 (Tetrahymena thermophila, UniProt A3F815 1-322); assay: EMSA; 100 mM KCl; EMSA: 10 mM Tris pH 7.5, 1 mM EDTA, 0.1 mM DTT, 5% glycerol, 0.010 mg/ml BSA, 100 mM KCl (or 100 mM LiCl to limit G4), 4 nM probe, RT; conditions: protein: recombinant; tags: N-terminal His; label: 32P (5' PNK); mixed G4 (100 mM KCl)
T2 sequence: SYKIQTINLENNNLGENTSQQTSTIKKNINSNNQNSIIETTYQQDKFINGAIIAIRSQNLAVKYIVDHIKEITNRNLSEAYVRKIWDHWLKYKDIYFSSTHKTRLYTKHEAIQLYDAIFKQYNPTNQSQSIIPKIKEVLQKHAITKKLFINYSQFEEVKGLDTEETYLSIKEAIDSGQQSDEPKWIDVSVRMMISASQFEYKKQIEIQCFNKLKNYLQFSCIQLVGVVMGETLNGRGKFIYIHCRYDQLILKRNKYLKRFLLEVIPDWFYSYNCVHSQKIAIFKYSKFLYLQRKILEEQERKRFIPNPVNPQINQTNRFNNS

[3] = target: T2, His-Lia3; assay: competition; 5X/20X vs G4-M1 probe; EMSA: 10 mM Tris pH 7.5, 1 mM EDTA, 0.1 mM DTT, 5% glycerol, 0.010 mg/ml BSA, 100 mM KCl (or 100 mM LiCl to limit G4), 4 nM probe, RT; conditions: protein: recombinant; tags: N-terminal His; parallel intermolecular G4, 4 strands (100 mM KCl)

B1: M1-C3 (C3G2 mutant) (ssDNA)
DNA: TTTATTAATCAAAAACCCGGTAAATAATAA
[1]
  binding result: no binding

B2: G4 Tetrahymena telomere (structured_DNA)
DNA: TTGGGGTTGGGGTTGGGGTTGGGG
[2]
  Kd: 11.5 µM

B3: G4-M2 (structured_DNA)
DNA: TTCAAGACAAAAAAAGGGGGATGGGTTTCC
[3]
  binding result: binds
